Measurements published in patent publication US20220226381A1.
Like-named read-outs stand apart in the source and are kept apart here.

How the values were obtained:
[1] = biological target: CD19 on CD19+ Raji B cells (UniProt P15391); test: cell-based or functional assay
[2] = biological target: CD19 on CD19+ Raji B cells (UniProt P15391); test: cell-based or functional assay; remark: listed apart in the source

UniProt P15391, sequence (P15391 20-556 limits assumed): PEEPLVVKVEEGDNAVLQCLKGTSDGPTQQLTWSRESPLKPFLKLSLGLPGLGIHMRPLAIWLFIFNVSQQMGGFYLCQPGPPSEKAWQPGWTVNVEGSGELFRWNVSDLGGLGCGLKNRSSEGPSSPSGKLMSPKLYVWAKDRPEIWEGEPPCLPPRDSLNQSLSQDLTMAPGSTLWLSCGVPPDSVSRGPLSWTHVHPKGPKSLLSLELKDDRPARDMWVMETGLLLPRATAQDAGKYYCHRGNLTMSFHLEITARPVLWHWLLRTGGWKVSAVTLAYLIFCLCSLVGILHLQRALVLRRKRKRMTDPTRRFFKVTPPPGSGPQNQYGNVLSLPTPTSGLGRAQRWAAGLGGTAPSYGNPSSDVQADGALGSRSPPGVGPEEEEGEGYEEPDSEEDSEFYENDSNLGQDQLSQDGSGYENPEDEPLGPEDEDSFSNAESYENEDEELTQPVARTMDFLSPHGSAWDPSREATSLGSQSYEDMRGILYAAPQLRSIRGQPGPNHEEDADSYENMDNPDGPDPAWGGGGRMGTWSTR

change in activated cells in the population (CD25 and CD69 staining, flow cytometry, 24 h co-culture) [1]: 0.9 to 84.8% | change in activated cells in the population (CD25 and CD69 staining, flow cytometry, 24 h co-culture) [2]: 3.9 to 12.1%
Substance: anti-CD19 CAR (anti-CD19 CAR cassette as described in WO 2012/079000), expressed on transduced CD4+ T-cells
